# *1 amine or outer side, *2 acyl side, *3 side chain or, on linkers, in order; H or OH if unused. Where no end group is shown, it is not given here. Side-chain parts run from the residue outwards. [ ]: non-standard residue; d: D form. The star is where a group is joined. C20 diacid = O=C(O)CCCCCCCCCCCCCCCCCCC(=O)*; γGlu = O=C(O)[C@H](CCC(=O)[*:2])N[*:1]; αMeL = CC(C)C[C@](C)(N)C(=O)O; αMeK = C[C@](N)(CCCCN)C(=O)O; AEEA = NCCOCCOCC(=O)O; Aib = CC(C)(N)C(=O)O
# B1: Example 17 (peptide)
# peptide: Y[Aib]QGTFTSDYSILLDKK([AEEA-AEEA-γGlu-C20 diacid])AQ[Aib]AFIEYLLE[Aib]GPSSGAPPPS-NH2
# modifications: N-terminus assumed
# SMILES: CC[C@H](C)[C@H](NC(=O)[C@H](Cc1ccccc1)NC(=O)[C@H](C)NC(=O)C(C)(C)NC(=O)[C@H](CCC(N)=O)NC(=O)[C@H](C)NC(=O)[C@H](CCCCNC(=O)COCCOCCNC(=O)COCCOCCNC(=O)CC[C@H](NC(=O)CCCCCCCCCCCCCCCCCCC(=O)O)C(=O)O)NC(=O)[C@H](CCCCN)NC(=O)[C@H](CC(=O)O)NC(=O)[C@H](CC(C)C)NC(=O)[C@H](CC(C)C)NC(=O)[C@@H](NC(=O)[C@H](CO)NC(=O)[C@H](Cc1ccc(O)cc1)NC(=O)[C@H](CC(=O)O)NC(=O)[C@H](CO)NC(=O)[C@@H](NC(=O)[C@H](Cc1ccccc1)NC(=O)[C@@H](NC(=O)CNC(=O)[C@H](CCC(N)=O)NC(=O)C(C)(C)NC(=O)[C@@H](N)Cc1ccc(O)cc1)[C@@H](C)O)[C@@H](C)O)[C@@H](C)CC)C(=O)N[C@@H](CCC(=O)O)C(=O)N[C@@H](Cc1ccc(O)cc1)C(=O)N[C@@H](CC(C)C)C(=O)N[C@@H](CC(C)C)C(=O)N[C@@H](CCC(=O)O)C(=O)NC(C)(C)C(=O)NCC(=O)N1CCC[C@H]1C(=O)N[C@@H](CO)C(=O)N[C@@H](CO)C(=O)NCC(=O)N[C@@H](C)C(=O)N1CCC[C@H]1C(=O)N1CCC[C@H]1C(=O)N1CCC[C@H]1C(=O)N[C@@H](CO)C(N)=O
# B2: Example 20 (peptide)
# peptide: Y[Aib]QGTFTSDYSILLDKK([AEEA-γGlu-C20 diacid])AQ[Aib]AFIEYLLE[Aib]GPSSGAPPPS-NH2
# modifications: N-terminus assumed
# SMILES: CC[C@H](C)[C@H](NC(=O)[C@H](Cc1ccccc1)NC(=O)[C@H](C)NC(=O)C(C)(C)NC(=O)[C@H](CCC(N)=O)NC(=O)[C@H](C)NC(=O)[C@H](CCCCNC(=O)COCCOCCNC(=O)CC[C@H](NC(=O)CCCCCCCCCCCCCCCCCCC(=O)O)C(=O)O)NC(=O)[C@H](CCCCN)NC(=O)[C@H](CC(=O)O)NC(=O)[C@H](CC(C)C)NC(=O)[C@H](CC(C)C)NC(=O)[C@@H](NC(=O)[C@H](CO)NC(=O)[C@H](Cc1ccc(O)cc1)NC(=O)[C@H](CC(=O)O)NC(=O)[C@H](CO)NC(=O)[C@@H](NC(=O)[C@H](Cc1ccccc1)NC(=O)[C@@H](NC(=O)CNC(=O)[C@H](CCC(N)=O)NC(=O)C(C)(C)NC(=O)[C@@H](N)Cc1ccc(O)cc1)[C@@H](C)O)[C@@H](C)O)[C@@H](C)CC)C(=O)N[C@@H](CCC(=O)O)C(=O)N[C@@H](Cc1ccc(O)cc1)C(=O)N[C@@H](CC(C)C)C(=O)N[C@@H](CC(C)C)C(=O)N[C@@H](CCC(=O)O)C(=O)NC(C)(C)C(=O)NCC(=O)N1CCC[C@H]1C(=O)N[C@@H](CO)C(=O)N[C@@H](CO)C(=O)NCC(=O)N[C@@H](C)C(=O)N1CCC[C@H]1C(=O)N1CCC[C@H]1C(=O)N1CCC[C@H]1C(=O)N[C@@H](CO)C(N)=O
# B3: Example 19 (peptide)
# peptide: Y[Aib]QGTFTSDYSILLDKK([AEEA-γGlu-γGlu-C20 diacid])AQ[Aib]AFIEYLLE[Aib]GPSSGAPPPS-NH2
# modifications: N-terminus assumed
# SMILES: CC[C@H](C)[C@H](NC(=O)[C@H](Cc1ccccc1)NC(=O)[C@H](C)NC(=O)C(C)(C)NC(=O)[C@H](CCC(N)=O)NC(=O)[C@H](C)NC(=O)[C@H](CCCCNC(=O)COCCOCCNC(=O)CC[C@H](NC(=O)CC[C@H](NC(=O)CCCCCCCCCCCCCCCCCCC(=O)O)C(=O)O)C(=O)O)NC(=O)[C@H](CCCCN)NC(=O)[C@H](CC(=O)O)NC(=O)[C@H](CC(C)C)NC(=O)[C@H](CC(C)C)NC(=O)[C@@H](NC(=O)[C@H](CO)NC(=O)[C@H](Cc1ccc(O)cc1)NC(=O)[C@H](CC(=O)O)NC(=O)[C@H](CO)NC(=O)[C@@H](NC(=O)[C@H](Cc1ccccc1)NC(=O)[C@@H](NC(=O)CNC(=O)[C@H](CCC(N)=O)NC(=O)C(C)(C)NC(=O)[C@@H](N)Cc1ccc(O)cc1)[C@@H](C)O)[C@@H](C)O)[C@@H](C)CC)C(=O)N[C@@H](CCC(=O)O)C(=O)N[C@@H](Cc1ccc(O)cc1)C(=O)N[C@@H](CC(C)C)C(=O)N[C@@H](CC(C)C)C(=O)N[C@@H](CCC(=O)O)C(=O)NC(C)(C)C(=O)NCC(=O)N1CCC[C@H]1C(=O)N[C@@H](CO)C(=O)N[C@@H](CO)C(=O)NCC(=O)N[C@@H](C)C(=O)N1CCC[C@H]1C(=O)N1CCC[C@H]1C(=O)N1CCC[C@H]1C(=O)N[C@@H](CO)C(N)=O
# B4: Example 15 (peptide)
# peptide: Y[Aib]QGTFTSDYSILLDKK([AEEA-AEEA-γGlu-C20 diacid])AQ[Aib]AFIEYLLA[Aib]GPSSGAPPPS-NH2
# modifications: N-terminus assumed
# SMILES: CC[C@H](C)[C@H](NC(=O)[C@H](Cc1ccccc1)NC(=O)[C@H](C)NC(=O)C(C)(C)NC(=O)[C@H](CCC(N)=O)NC(=O)[C@H](C)NC(=O)[C@H](CCCCNC(=O)COCCOCCNC(=O)COCCOCCNC(=O)CC[C@H](NC(=O)CCCCCCCCCCCCCCCCCCC(=O)O)C(=O)O)NC(=O)[C@H](CCCCN)NC(=O)[C@H](CC(=O)O)NC(=O)[C@H](CC(C)C)NC(=O)[C@H](CC(C)C)NC(=O)[C@@H](NC(=O)[C@H](CO)NC(=O)[C@H](Cc1ccc(O)cc1)NC(=O)[C@H](CC(=O)O)NC(=O)[C@H](CO)NC(=O)[C@@H](NC(=O)[C@H](Cc1ccccc1)NC(=O)[C@@H](NC(=O)CNC(=O)[C@H](CCC(N)=O)NC(=O)C(C)(C)NC(=O)[C@@H](N)Cc1ccc(O)cc1)[C@@H](C)O)[C@@H](C)O)[C@@H](C)CC)C(=O)N[C@@H](CCC(=O)O)C(=O)N[C@@H](Cc1ccc(O)cc1)C(=O)N[C@@H](CC(C)C)C(=O)N[C@@H](CC(C)C)C(=O)N[C@@H](C)C(=O)NC(C)(C)C(=O)NCC(=O)N1CCC[C@H]1C(=O)N[C@@H](CO)C(=O)N[C@@H](CO)C(=O)NCC(=O)N[C@@H](C)C(=O)N1CCC[C@H]1C(=O)N1CCC[C@H]1C(=O)N1CCC[C@H]1C(=O)N[C@@H](CO)C(N)=O
# Target: T1, human GIP receptor (human), P48546
# T1 chain: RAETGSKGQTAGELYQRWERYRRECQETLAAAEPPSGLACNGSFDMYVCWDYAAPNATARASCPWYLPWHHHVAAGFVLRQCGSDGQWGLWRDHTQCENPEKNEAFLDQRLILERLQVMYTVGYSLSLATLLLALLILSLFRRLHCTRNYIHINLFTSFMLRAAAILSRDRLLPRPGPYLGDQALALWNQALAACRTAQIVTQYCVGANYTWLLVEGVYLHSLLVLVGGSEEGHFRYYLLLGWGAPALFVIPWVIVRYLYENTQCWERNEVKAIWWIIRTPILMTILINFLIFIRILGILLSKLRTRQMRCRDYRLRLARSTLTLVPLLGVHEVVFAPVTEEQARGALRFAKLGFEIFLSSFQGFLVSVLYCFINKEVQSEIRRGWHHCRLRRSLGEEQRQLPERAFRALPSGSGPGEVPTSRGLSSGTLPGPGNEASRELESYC
# Assay: cell-based or functional assay
Binder,cAMP EC50 (0.1% casein) [nM],cAMP EC50 (FBS and BSA present) [nM]
B1,0.0439,2.38
B2,0.0572,3.7
Y[Aib]QGTFTSDYSILLDKK([AEEA-AEEA-γGlu-C20 diacid])AQ[Aib]AFIEYLLEGGPSSGAPPPS-NH2 [Example 16],0.114,4.37
B3,0.0455,3.13
Y[Aib]QGTFTSDYSILLDKK([AEEA-γGlu-C20 diacid])AQ[Aib]AFIEYLLEGGPSSGAPPPS-NH2 [Example 18],0.123,5.89
Y[Aib]QGTFTSDYSI[αMeL]LDKK([AEEA-AEEA-γGlu-C20 diacid])AQ[αMeK]AFIEYLLEGGPSSGAPPPS-NH2 [Example 3],0.0376,1.91
B4,0.0689,1.47

# Target: T2, human GLP-1 receptor (human), P43220
# T2 chain: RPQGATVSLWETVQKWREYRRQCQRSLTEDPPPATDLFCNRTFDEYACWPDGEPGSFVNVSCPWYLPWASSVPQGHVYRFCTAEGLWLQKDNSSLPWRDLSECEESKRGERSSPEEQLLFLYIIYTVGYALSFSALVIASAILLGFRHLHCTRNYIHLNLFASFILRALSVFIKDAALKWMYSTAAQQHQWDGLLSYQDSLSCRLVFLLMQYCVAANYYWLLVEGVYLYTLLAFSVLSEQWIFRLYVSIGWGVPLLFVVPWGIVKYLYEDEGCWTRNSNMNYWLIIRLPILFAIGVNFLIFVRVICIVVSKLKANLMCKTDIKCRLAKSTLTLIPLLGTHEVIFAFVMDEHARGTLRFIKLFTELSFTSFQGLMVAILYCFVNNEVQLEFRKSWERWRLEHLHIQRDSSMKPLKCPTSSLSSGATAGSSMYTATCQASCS
# Assay: cell-based or functional assay
Binder,cAMP EC50 (0.1% casein) [nM],cAMP EC50 (FBS and BSA present) [nM]
B1,0.153,18.4
B2,0.149,20.6
Y[Aib]QGTFTSDYSILLDKK([AEEA-AEEA-γGlu-C20 diacid])AQ[Aib]AFIEYLLEGGPSSGAPPPS-NH2 [Example 16],0.157,19
B3,0.143,24.4
Y[Aib]QGTFTSDYSILLDKK([AEEA-γGlu-C20 diacid])AQ[Aib]AFIEYLLEGGPSSGAPPPS-NH2 [Example 18],0.141,16.1
Y[Aib]QGTFTSDYSI[αMeL]LDKK([AEEA-AEEA-γGlu-C20 diacid])AQ[αMeK]AFIEYLLEGGPSSGAPPPS-NH2 [Example 3],0.107,–
B4,0.253,10.7

# Target: human glucagon receptor (human), P47871
# Assay: cell-based or functional assay
# Chain of human glucagon receptor (human), P47871 (P47871 26-477): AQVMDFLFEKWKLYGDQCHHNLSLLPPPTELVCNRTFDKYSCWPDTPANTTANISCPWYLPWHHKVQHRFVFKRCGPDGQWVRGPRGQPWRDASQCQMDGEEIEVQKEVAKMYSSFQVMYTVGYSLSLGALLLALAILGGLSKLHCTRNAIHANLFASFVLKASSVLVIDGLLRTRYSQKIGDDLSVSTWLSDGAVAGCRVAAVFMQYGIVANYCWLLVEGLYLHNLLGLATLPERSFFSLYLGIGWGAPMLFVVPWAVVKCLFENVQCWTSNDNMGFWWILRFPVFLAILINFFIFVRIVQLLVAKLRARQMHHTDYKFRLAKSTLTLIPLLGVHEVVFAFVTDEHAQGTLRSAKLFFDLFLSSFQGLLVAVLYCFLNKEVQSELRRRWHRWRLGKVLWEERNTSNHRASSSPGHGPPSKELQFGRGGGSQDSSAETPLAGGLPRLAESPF
Binder,cAMP EC50 (0.1% casein) [nM],cAMP EC50 (FBS and BSA present) [nM]
B1,0.135,8.05
B2,0.0641,3.97
Y[Aib]QGTFTSDYSILLDKK([AEEA-AEEA-γGlu-C20 diacid])AQ[Aib]AFIEYLLEGGPSSGAPPPS-NH2 [Example 16],0.174,13.2
B3,0.0874,8.45
Y[Aib]QGTFTSDYSILLDKK([AEEA-γGlu-C20 diacid])AQ[Aib]AFIEYLLEGGPSSGAPPPS-NH2 [Example 18],0.0861,5.71
Y[Aib]QGTFTSDYSI[αMeL]LDKK([AEEA-AEEA-γGlu-C20 diacid])AQ[αMeK]AFIEYLLEGGPSSGAPPPS-NH2 [Example 3],0.152,8.03
B4,0.131,5.92

# Target: T1, human GIP receptor (human), P48546
# Assay: radioligand competition SPA, HEK293 membranes
row,Binder,Ki [nM]
1,B1,0.0895
2,B2,0.109
3,Y[Aib]QGTFTSDYSILLDKK([AEEA-AEEA-γGlu-C20 diacid])AQ[Aib]AFIEYLLEGGPSSGAPPPS-NH2 [Example 16],0.106
4,B3,0.0789
5,Y[Aib]QGTFTSDYSILLDKK([AEEA-γGlu-C20 diacid])AQ[Aib]AFIEYLLEGGPSSGAPPPS-NH2 [Example 18],0.0835
6,Y[Aib]QGTFTSDYSI[αMeL]LDKK([AEEA-AEEA-γGlu-C20 diacid])AQ[αMeK]AFIEYLLEGGPSSGAPPPS-NH2 [Example 3],0.0446
7,B4,0.0972

# Target: T2, human GLP-1 receptor (human), P43220
# Assay: radioligand competition SPA, HEK293 membranes
row,Binder,Ki [nM]
1,B1,10.2
2,B2,9.23
3,Y[Aib]QGTFTSDYSILLDKK([AEEA-AEEA-γGlu-C20 diacid])AQ[Aib]AFIEYLLEGGPSSGAPPPS-NH2 [Example 16],16.1
4,B3,12
5,Y[Aib]QGTFTSDYSILLDKK([AEEA-γGlu-C20 diacid])AQ[Aib]AFIEYLLEGGPSSGAPPPS-NH2 [Example 18],8.06
6,Y[Aib]QGTFTSDYSI[αMeL]LDKK([AEEA-AEEA-γGlu-C20 diacid])AQ[αMeK]AFIEYLLEGGPSSGAPPPS-NH2 [Example 3],6.06
7,B4,5.8

# Target: human glucagon receptor (human), P47871
# Assay: radioligand competition SPA, HEK293 membranes
row,Binder,Ki [nM]
1,B1,5.81
2,B2,3.76
3,Y[Aib]QGTFTSDYSILLDKK([AEEA-AEEA-γGlu-C20 diacid])AQ[Aib]AFIEYLLEGGPSSGAPPPS-NH2 [Example 16],11.5
4,B3,5.2
5,Y[Aib]QGTFTSDYSILLDKK([AEEA-γGlu-C20 diacid])AQ[Aib]AFIEYLLEGGPSSGAPPPS-NH2 [Example 18],5.71
6,Y[Aib]QGTFTSDYSI[αMeL]LDKK([AEEA-AEEA-γGlu-C20 diacid])AQ[αMeK]AFIEYLLEGGPSSGAPPPS-NH2 [Example 3],12
7,B4,4.56

# From patent US20250313605A1
